The test deals with human carcinoembryonic antigen (CEA) (Homo sapiens, UniProt P06731). The test is described as follows: flow cytometry on cells.

These results are taken from paper doi:10.1101/698563 (bioRxiv, 2019).

Chain of human carcinoembryonic antigen (CEA) (P06731 35-685): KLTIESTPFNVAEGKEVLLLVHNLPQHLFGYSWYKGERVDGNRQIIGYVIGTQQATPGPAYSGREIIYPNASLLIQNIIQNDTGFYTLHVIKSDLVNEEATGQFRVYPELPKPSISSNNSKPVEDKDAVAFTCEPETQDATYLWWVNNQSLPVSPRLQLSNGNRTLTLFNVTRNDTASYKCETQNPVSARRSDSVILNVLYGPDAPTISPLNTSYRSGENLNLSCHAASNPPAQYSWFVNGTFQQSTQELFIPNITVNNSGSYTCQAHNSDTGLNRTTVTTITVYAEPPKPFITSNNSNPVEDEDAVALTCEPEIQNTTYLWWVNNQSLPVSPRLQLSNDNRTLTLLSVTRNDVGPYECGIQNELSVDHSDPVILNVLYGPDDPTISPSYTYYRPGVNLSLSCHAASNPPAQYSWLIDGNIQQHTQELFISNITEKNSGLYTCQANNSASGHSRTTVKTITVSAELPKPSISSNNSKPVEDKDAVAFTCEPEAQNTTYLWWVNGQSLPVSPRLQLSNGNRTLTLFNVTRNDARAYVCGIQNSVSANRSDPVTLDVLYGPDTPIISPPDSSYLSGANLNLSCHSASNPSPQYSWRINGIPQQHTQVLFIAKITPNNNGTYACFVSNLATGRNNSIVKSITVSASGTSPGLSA

B1: Sm3E-TNF (scFv, V domains shown)
VH: QVKLEQSGAEVVKPGASVKLSCKASGFNIKDSYMHWLRQGPGQRLEWIGWIDPENGDTEYAPKFQGKATFTTDTSANTAYLGLSSLRPEDTAVYYCNEGTPTGPYYFDYWGQGTLVTVSS
VL: ENVLTQSPSSMSVSVGDRVTIACSASSSVPYMHWLQQKPGKSPKLLIYLTSNLASGVPSRFSGSGSGTDYSLTISSVQPEDAATYYCQQRSSYPLTFGGGTKLEIK
Regarding B1, the binding result is reported as “binds”.
